# Measurements reported in patent US20090181909.
# Legend:
# [1] = test system: T1, D-AVP (D-(Arg8)-vasopressin, all-D peptide) (Homo sapiens); experiment: competition; conditions: biotinylated D-AVP; selection buffer
# T1 sequence: CYFQNCPRG
# [2] = test system: T2, L-AVP ((Arg8)-vasopressin) (Homo sapiens); experiment: ITC; conditions: L-RNA, hexaethylene glycol (PEG) spacer between Helix 2 and Helix 1, 37 C, 20 mM Tris pH 7.4, 150 mM NaCl, 5 mM KCl, 1 mM MgCl2, 1 mM CaCl2
# T2 sequence: CYFQNCPRG
# [3] = target: T3, L-oxytocin (UniProt P01178); experiment: ITC; conditions: L-RNA; hexaethylene glycol (PEG) spacer between Helix 2 and Helix 1; 3'-C6-amino 40 kDa PEG; 37 C; same buffer; activity 69.8%; about ten times lower affinity than …
# T3 sequence: CYIQNCPLG
sequence,measurement,setting,value
AGUGUGCGUGGUUAAUAAUGGGGUAGGGCUUGGAUGGGUAGUACACU [CHF-157-B4 (CHF-F-000)],Kd,[1],9.5 nM
GGGGUAGGGCUUGGAUGGGUAGUACACGUGUGCGUGGU [CHF-F-037 spiegelmer],Kd,[2]; activity 46.8%,1.7 nM
GGGGUAGGGCUUGGAUGGGUAGUACACGUGUGCGUGGU [CHF-F-037-3'PEG spiegelmer],Kd,"[2]; 3'-C6-amino 40 kDa PEG, activity 59.1%",1.3 nM
same,Kd,[3],16 nM
